The supplement of paper PMC9170038

system: MS2 coat protein; experiment: apparent KD of MS2 coat protein; higher = weaker reporter binding; settings: Eterna round: R107; input ligand: arginine 13.2 mM
Summary of the method: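 Illumina sequencing clusters served as templates for on-chip transcription of the designed RNA switches. SNAP-549-labelled MS2 coat protein was then titrated in twofold steps from 0.7 or 1.5 nM to 3 µM, allowing 0.8–1.5 h per step at first and 10–20 min per step later. The buffer held 100 mM Tris-HCl pH 7.5, 80 mM KCl and 4 mM MgCl2, without or with constant ligand. Apparent KD is the median per design of normalised cluster binding-curve fits.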

“UACCGAUGAAGAAGGAGCGUGCGUGGUUCACAUGAGGAUCACCCAUGUGCUUUAUACUAGGCACAGGUAGGUCGCUUCAUCGGUA [SSAB NP+V+V2 #22]” was tested, and the “apparent KD of MS2 coat protein” value was 24.3 nM.

same assay, conditions: Eterna round: R107; input ligand: none

Point of comparison: “UUCAGCUAGUCGGCCGCCACUACAUGAGCAUCAGCCAUGUUCCUAAAACACUGCUUCGGCAGUGGUAGGACCGGGACUAGCUGAG”, “apparent KD of MS2 coat protein” value 11 nM. Against it:
- CAUAUAUAUUGAAGGAGCGACAUGAGGAUCACCCAUGUCUACCACGUCGAAAGACGCUCAUGUCAGGUAGGUCGCAAUAUAUAUG [Astros-Eli-mod5] — 11-fold higher, 124 nM
- GUCCACAUGAGGAUCACCCAUGUAAGUGGGCGAGGACCGGUACGGCCGCCACUCGACAUGUUGACGAAAAGUCAGCAUGAGGACA [#SwitchBubble 3 #GuTurnoff #Tail] — 9.8-fold higher, 108 nM
- UGUAUGGACUGAAGGAGCGCCUCAAAAUAACUUGAGGAUCACCCAGGUAAGGCGAAAGCCGGGCAGGUAGGUCGCAGUCCAUACU [ArgBX 3] — 3.4-fold higher, 37 nM
- UUAUUUAACGGAAGGAGCGCGGAAAUUAAAGUGGGUAAACAUGAGGAUCACCCAUGUAAACCGCAGGUAGGUCGCCGAUAUUUAU [#22 Exclusion - Arginine B] — 7.7-fold higher, 84.5 nM
- ACACAUGAUAGAAGGAGCGCAAUGAACACACAUGAGGAUCACCCAUGUUUUUUUUGUGUUUUGCAGGUAGGUCGCUAACAUGAGG [Same State Arginine B 4] — within 1.5-fold, 8.66 nM
- UGAUACACGGGAAGGAGCGACAGGGAUAAGUCCGCACGGGCCGCACAUGAGGAUCACCCAUGUCAGGUAGGUCGCCCGUGGCGUG [Erxemarima] — within 1.5-fold, 13.5 nM
- UUGGUACAUGAGGAUCACCCAUGUACUGAAGGAGCGGGACGAAUCUCAGGUAGGUCGCAGACAUGAGGAUCACCCAUGUAUUGGU [Exclusion Arginine A GF 16] — within 1.5-fold, 13 nM
- AACAUGAGGAUCACCCAUGUCGGGCCGGAGCGAGGACCGGUACGGCCGCCACUCGAGACAUGAGGAUCACCCAUGUAGGGCGAAA [Exclusion Tryptophan A GF21] — 11-fold higher, 116 nM
- UGUGACAUGAGGAUCACCCAUGUAAGGGAAGGAGCGCCGAAUAAGGCAGGUAGGUCGCCCAAGAUAGAAGAAUAAUAAGAUUGUG [Arginine A Same State; Euphoria Solution] — 2.5-fold higher, 27.1 nM
- AAGACAUGAGGAUCACCCAUGUCGACAAAACGAGGACCGGUACGGCCGCCACUCGAAAGCAAAUGAGCGCAUGCGGCCUGGGUAU [Exclusion Tryp A GF2] — within 1.5-fold, 11.9 nM
- CAAUAUAUAUGAAGGAGCGUCGAAAAUGGGUAAACAUGAGGAUCACCCAUGUAAAGGGAACGACAGGUAGGUCGCAUAUAUAUUG [AstromonsSSArgB#8] — 15-fold higher, 168 nM
- AUGCAUAGCGGAAGGAGCGCAAUAGAAUGACAUGAGGAUCACCCAUGUGUGUGAUGUGGAUUGCAGGUAGGUCGCCGAGUGGUAU [Exclusion - Arginine B (Freestyle 3)] — 4.1-fold higher, 45.1 nM
- AACAUGAGGAUCACCCAUGUCGGGCCGGUGCGAGGACCGGUACGGCCGCCACUCGAGACAUGAGGAUCACCCAUGUAGGGCGAGA [Exclusion Tryptophan A GF22] — 7.2-fold higher, 79.7 nM
- AACAGGGUCUGAAGGAGCGCGAUCACAUGAGGAUCACCCAUGUGAAAUGGUAGAUGAUACUCGCAGGUAGGUCGCAGUACUUGAC [Same State Arginine B GF 15] — 3.1-fold higher, 33.6 nM
- UUGUUGUUUGGAAGGAGCGUGUAAGAUUAAGAACAUGAGGAUCACCCAUGUUUUAAGGGAGCACAGGUAGGUCGCCGGGUGGUGG [11.S] — within 1.5-fold, 12.3 nM
- GUCCUCGUGUCCGGUUUAGCGCAAAGCGCACGAGGACCGGUACGGCCGCCACUCGAAACAUGAGGAUCACCCAUGUGAAGAAUAA [Design 1] — within 1.5-fold, 14.6 nM
- UACCGAUGAAGAAGGAGCGUGCGUGGUUCACAUGAGGAUCACCCAUGUGCUUUAUACUAGGCACAGGUAGGUCGCUUCAUCGGUA [SSAB NP+V+V2 #22] — 1.8-fold higher, 19.4 nM

same assay, conditions: Eterna round: R107; input ligand: theophylline 20 uM

Point of comparison: “UUCAGCUAGUCGGCCGCCACUACAUGAGCAUCAGCCAUGUUCCUAAAACACUGCUUCGGCAGUGGUAGGACCGGGACUAGCUGAG”, “apparent KD of MS2 coat protein” value 12 nM. Against it:
- CGCUACAUGAGGAUCACCCAUGUUACUCCGCGAGGACCGGUACGGCCGCCACUCGGCAGUUUGCGCCGCCGGAGGCACUCUUCAG [theeternabot_sameState_MS2_Trp_A_32] — 3.6-fold higher, 43.6 nM
- GGUUGAUGGUCGGCCGCCACUGUUGGUGCCAUGAGUUAAGUAUAGCACAUGAGGAUCACCCAUGUCAGGACCGGGACUCUACCCG [theeternabot_exclusion_MS2_Trp_B_16] — 1.6-fold higher, 19.6 nM
- ACAUCCAGAUUAAUCGUGGGCAUACUCGAUACCAGUAUUUUAACCUACCCUUGGCAGCGACAUGAGGAUCACCCAUGUGAGAUGA [XTheo A #10] — 2.1-fold higher, 25.2 nM
- CGAAUAUAGACGGCCGCCACUCUACAAACAUGAGGAUCACCCAUGUUCACAUAGUGGAAACACAUGAGGACCGGGUCAUAGGCUU [#19 Same State - Tryptophan B] — 2.2-fold higher, 26.9 nM
- CAUAUAUAUUGAAGGAGCGACAUGAGGAUCACCCAUGUCUACCACGUCGAAAGACGCUCAUGUCAGGUAGGUCGCAAUAUAUAUG [Astros-Eli-mod5] — 7.2-fold higher, 86.2 nM
- GGCACAUAGUCGGCCGCCACUAGAUUUUAGUGGAAUAACAUGAGGAUCACCCAUGUAUUUGGGACUAGGACCGGGACUAUGUGCC [Hyena] — 3.6-fold higher, 43.2 nM
- GUCCACAUGAGGAUCACCCAUGUAAGUGGGCGAGGACCGGUACGGCCGCCACUCGACAUGUUGACGAAAAGUCAGCAUGAGGACA [#SwitchBubble 3 #GuTurnoff #Tail] — 13-fold higher, 154 nM
- UGUAUGGACUGAAGGAGCGCCUCAAAAUAACUUGAGGAUCACCCAGGUAAGGCGAAAGCCGGGCAGGUAGGUCGCAGUCCAUACU [ArgBX 3] — 3.6-fold higher, 43.1 nM
- AUCAGUAGAACUGAUACCAGUCAAAGGCUUUGACCUCAUAACAUGAGGAUCACCCAUGUUGACCCUUGGCAGCAGUAGGCAAGGG [Theo B Ex t4] — 2.4-fold higher, 28.9 nM
- UAUACAUGGUAUAAAUAUAUAUAUAAGAAACGAGGACCGGUACGGCCGCCACUCGUGCCGGAAACAUGAGGAUCACCCAUGUAUU [AK1 Exclusion TrypA mod IceBolt] — 3.3-fold higher, 39.3 nM
- AAAACAUGAGGAUCACCACAUGACAUGAGGCGAGGACCGGUACGGCCGCCACUCGACAUACAUGAGGAUCACCCAUGUUUGUUGU [Exclusion Tryptophan A 4] — 23-fold higher, 274 nM
- CAUAAUUUAUCCUAUAAAACUAUUAGUGAUACCAGCACCUCAUGAUGCCCUUGGCAGCACUUACAUGAGGAUCACCCAUGUUUUA [JR_NU_SSTheophyA_Sub029] — 19-fold higher, 223 nM
- AAUAACAUGAGGAUCACCCAUGUAAAAGAUACCAGAGUGAUGAUCCUCCCUUGGCAGCUUAAACGCUAUUGAUUACAAUAGCGAA [Mat - Same State Theophlline A - Mod of Eli - D2] — 9.5-fold higher, 114 nM
- UUAUUUAACGGAAGGAGCGCGGAAAUUAAAGUGGGUAAACAUGAGGAUCACCCAUGUAAACCGCAGGUAGGUCGCCGAUAUUUAU [#22 Exclusion - Arginine B] — 5.6-fold higher, 67.3 nM
- ACACAUGAUAGAAGGAGCGCAAUGAACACACAUGAGGAUCACCCAUGUUUUUUUUGUGUUUUGCAGGUAGGUCGCUAACAUGAGG [Same State Arginine B 4] — 2-fold higher, 23.6 nM
- UGAUACACGGGAAGGAGCGACAGGGAUAAGUCCGCACGGGCCGCACAUGAGGAUCACCCAUGUCAGGUAGGUCGCCCGUGGCGUG [Erxemarima] — 1.6-fold higher, 19.6 nM
- AUGGAGACCUCGGCCGCCACUCUCCAUGAGGAUCUCCCAUGUAACAUGAGGAUCACCCAUGUACUGAGGACCGGGAGGUCCUUGA [Same State Tryptophan B GF 17] — within 1.5-fold, 10.8 nM
